Test results from the supplement of paper PMC7125110.
± gives the standard error. Fewer inactive variants are shown than the library holds.

B1: glmS ribozyme (parent)
chain: AUAAAAGCGCCAGAACUACAGAAAUGUAGUUGACGAGGAGGAGGUUUAUCGAAUUUUCGGCGGAUGCCUCCAAA

Experiments:
Conditions in all cases: with glucosamine-6-phosphate
[1] = variants of: B1; test: self-cleavage kobs at 640 uM GlcN6P; higher = faster cleavage; RNA array
Summary of the method: (§1)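 Ribozyme variants carrying barcodes were transcribed in situ on sequenced MiSeq chips by E. coli RNA polymerase and tracked at 37 °C with a hybridised Cy3 probe. They were exposed to 40 μM to 10 mM glucosamine-6-phosphate in HEPES/KCl/Mg(OAc)2 buffer. kobs came from exponential decay fits of normalised per-tile medians, and kcat and KM from weighted Michaelis–Menten fits.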

[2] = variants of: B1; test: self-cleavage kobs at 2500 uM GlcN6P; higher = faster cleavage; RNA array
Summary of the method: as §1

[3] = variants of: B1; test: self-cleavage kobs at 10000 uM GlcN6P; higher = faster cleavage; RNA array
Summary of the method: as §1

U30A A33G A36C
self-cleavage kobs at 640 uM GlcN6P [1]: < 1e-05 s⁻¹

U31C A42G G66A
self-cleavage kobs at 640 uM GlcN6P [1]: 0.000315 ± 9.6e-05 s⁻¹
self-cleavage kobs at 2500 uM GlcN6P [2]: 0.00117 ± 0.00033 s⁻¹

A14U G35A A64G
self-cleavage kobs at 640 uM GlcN6P [1]: < 1e-05 s⁻¹

C16G G51A A64U
self-cleavage kobs at 640 uM GlcN6P [1]: < 1e-05 s⁻¹

G29U A36U A39G G60A
self-cleavage kobs at 640 uM GlcN6P [1]: < 1e-05 s⁻¹

A15C G32U U55G C58G U69G
self-cleavage kobs at 640 uM GlcN6P [1]: 0.000909 ± 0.00036 s⁻¹

U31A U54A C68A
self-cleavage kobs at 640 uM GlcN6P [1]: 6.98e-05 ± 2.6e-05 s⁻¹

U30G A42U C50A G60U
self-cleavage kobs at 640 uM GlcN6P [1]: < 1e-05 s⁻¹

U30A C70G C71U
self-cleavage kobs at 640 uM GlcN6P [1]: 5.91e-05 ± 2.5e-05 s⁻¹
self-cleavage kobs at 2500 uM GlcN6P [2]: 8.51e-05 ± 2.9e-05 s⁻¹

G32C G41A U46G C71U
self-cleavage kobs at 640 uM GlcN6P [1]: < 1e-05 s⁻¹
self-cleavage kobs at 2500 uM GlcN6P [2]: < 1e-05 s⁻¹

G32A A33G C50A
self-cleavage kobs at 640 uM GlcN6P [1]: < 1e-05 s⁻¹
self-cleavage kobs at 10000 uM GlcN6P [3]: < 1e-05 s⁻¹

U31A G43C U45G A52U C70U
self-cleavage kobs at 640 uM GlcN6P [1]: < 1e-05 s⁻¹

A15G A42C A64C U69C
self-cleavage kobs at 640 uM GlcN6P [1]: < 1e-05 s⁻¹

G21U C70G
self-cleavage kobs at 640 uM GlcN6P [1]: 0.000253 ± 5.1e-05 s⁻¹
self-cleavage kobs at 2500 uM GlcN6P [2]: 0.000154 ± 3.9e-05 s⁻¹
self-cleavage kobs at 10000 uM GlcN6P [3]: 9.23e-05 ± 2.3e-05 s⁻¹

A15U A52U G66C C71U
self-cleavage kobs at 640 uM GlcN6P [1]: < 1e-05 s⁻¹

C16A A39U U54C
self-cleavage kobs at 640 uM GlcN6P [1]: 0.000107 ± 2.9e-05 s⁻¹
self-cleavage kobs at 2500 uM GlcN6P [2]: 0.000434 ± 9.7e-05 s⁻¹
self-cleavage kobs at 10000 uM GlcN6P [3]: 0.000811 ± 0.00017 s⁻¹

G29A G38C C70A
self-cleavage kobs at 640 uM GlcN6P [1]: 6.65e-05 ± 3.1e-05 s⁻¹

U31C G38U G41U G63C
self-cleavage kobs at 640 uM GlcN6P [1]: < 1e-05 s⁻¹

C16G G32U C61U
self-cleavage kobs at 640 uM GlcN6P [1]: < 1e-05 s⁻¹
self-cleavage kobs at 2500 uM GlcN6P [2]: < 1e-05 s⁻¹

G29C A53G C68A
self-cleavage kobs at 640 uM GlcN6P [1]: 0.000139 ± 5.9e-05 s⁻¹
self-cleavage kobs at 2500 uM GlcN6P [2]: 9.57e-05 ± 3.7e-05 s⁻¹

A15G U31C A33C A52U U54C
self-cleavage kobs at 640 uM GlcN6P [1]: < 1e-05 s⁻¹
self-cleavage kobs at 2500 uM GlcN6P [2]: < 1e-05 s⁻¹

A15G G40U C50G G60C
self-cleavage kobs at 640 uM GlcN6P [1]: < 1e-05 s⁻¹

A15G A36U G41U C70U
self-cleavage kobs at 640 uM GlcN6P [1]: < 1e-05 s⁻¹
self-cleavage kobs at 2500 uM GlcN6P [2]: < 1e-05 s⁻¹

U30A U69G C71A
self-cleavage kobs at 640 uM GlcN6P [1]: 0.00266 ± 0.00078 s⁻¹

U31G G37C U45G C70U
self-cleavage kobs at 640 uM GlcN6P [1]: < 1e-05 s⁻¹
self-cleavage kobs at 2500 uM GlcN6P [2]: < 1e-05 s⁻¹

G29C G41C C68G
self-cleavage kobs at 640 uM GlcN6P [1]: < 1e-05 s⁻¹
self-cleavage kobs at 2500 uM GlcN6P [2]: < 1e-05 s⁻¹
self-cleavage kobs at 10000 uM GlcN6P [3]: < 1e-05 s⁻¹

G29U G41C A42U G63U
self-cleavage kobs at 640 uM GlcN6P [1]: < 1e-05 s⁻¹

U30G U46C U47G
self-cleavage kobs at 640 uM GlcN6P [1]: 8.33e-05 ± 2.2e-05 s⁻¹

G29A U45C U46G A53C C67G U69G
self-cleavage kobs at 640 uM GlcN6P [1]: < 1e-05 s⁻¹
self-cleavage kobs at 2500 uM GlcN6P [2]: < 1e-05 s⁻¹

A15G C16A C58A A64U C70U
self-cleavage kobs at 640 uM GlcN6P [1]: 8e-05 ± 1.9e-05 s⁻¹

G29U U47A A64U
self-cleavage kobs at 640 uM GlcN6P [1]: < 1e-05 s⁻¹

A18C G35U U57A
self-cleavage kobs at 640 uM GlcN6P [1]: < 1e-05 s⁻¹

A15C G37A A42G
self-cleavage kobs at 640 uM GlcN6P [1]: 8.69e-05 ± 3e-05 s⁻¹
self-cleavage kobs at 2500 uM GlcN6P [2]: 0.000171 ± 4.6e-05 s⁻¹

C16U A39G A42U U47A
self-cleavage kobs at 640 uM GlcN6P [1]: 5.33e-05 ± 2.6e-05 s⁻¹
self-cleavage kobs at 2500 uM GlcN6P [2]: 0.000115 ± 1.9e-05 s⁻¹

A14G U30G A64G
self-cleavage kobs at 640 uM GlcN6P [1]: 0.00462 ± 0.0017 s⁻¹
self-cleavage kobs at 2500 uM GlcN6P [2]: 0.00995 ± 0.0044 s⁻¹

U30A U31C G32A
self-cleavage kobs at 640 uM GlcN6P [1]: 6.3e-05 ± 1.6e-05 s⁻¹
self-cleavage kobs at 2500 uM GlcN6P [2]: 0.000298 ± 5.8e-05 s⁻¹

G29A A52C U57G A64G C71A
self-cleavage kobs at 640 uM GlcN6P [1]: < 1e-05 s⁻¹

G29U G32U G44C U65C
self-cleavage kobs at 640 uM GlcN6P [1]: < 1e-05 s⁻¹

G29A G32U G40U G44U
self-cleavage kobs at 640 uM GlcN6P [1]: < 1e-05 s⁻¹
self-cleavage kobs at 2500 uM GlcN6P [2]: < 1e-05 s⁻¹

C16U A53G C70A
self-cleavage kobs at 640 uM GlcN6P [1]: 0.000224 ± 3.5e-05 s⁻¹
self-cleavage kobs at 2500 uM GlcN6P [2]: 0.000232 ± 6.5e-05 s⁻¹

A15G G51C A52G G62A
self-cleavage kobs at 640 uM GlcN6P [1]: < 1e-05 s⁻¹
self-cleavage kobs at 2500 uM GlcN6P [2]: < 1e-05 s⁻¹

C16G U46A U49G C67G U69G C71G
self-cleavage kobs at 640 uM GlcN6P [1]: < 1e-05 s⁻¹

U30C C67A C70G
self-cleavage kobs at 640 uM GlcN6P [1]: 6.32e-05 ± 1.4e-05 s⁻¹

U31A A33U G44U U69C
self-cleavage kobs at 640 uM GlcN6P [1]: < 1e-05 s⁻¹

A15C G35U G41A U65C C68A
self-cleavage kobs at 640 uM GlcN6P [1]: < 1e-05 s⁻¹
self-cleavage kobs at 2500 uM GlcN6P [2]: < 1e-05 s⁻¹

U31G G32U A53U A64G
self-cleavage kobs at 640 uM GlcN6P [1]: 0.000197 ± 6.1e-05 s⁻¹

U31C A48G G60A
self-cleavage kobs at 640 uM GlcN6P [1]: < 1e-05 s⁻¹
self-cleavage kobs at 2500 uM GlcN6P [2]: < 1e-05 s⁻¹

G29A G35C G40A
self-cleavage kobs at 640 uM GlcN6P [1]: < 1e-05 s⁻¹

C16G G44U G51U C61U
self-cleavage kobs at 640 uM GlcN6P [1]: < 1e-05 s⁻¹
self-cleavage kobs at 2500 uM GlcN6P [2]: < 1e-05 s⁻¹

U30C U47G
self-cleavage kobs at 640 uM GlcN6P [1]: 6.62e-05 ± 2.2e-05 s⁻¹
self-cleavage kobs at 2500 uM GlcN6P [2]: 3.09e-05 ± 1.1e-05 s⁻¹
self-cleavage kobs at 10000 uM GlcN6P [3]: 2.83e-05 ± 6e-06 s⁻¹

G29U C34U
self-cleavage kobs at 640 uM GlcN6P [1]: < 1e-05 s⁻¹

G29C G37C C68G
self-cleavage kobs at 640 uM GlcN6P [1]: 7.66e-05 ± 3.4e-05 s⁻¹

G29U A48U C61U
self-cleavage kobs at 640 uM GlcN6P [1]: < 1e-05 s⁻¹

A15U G35U U46A
self-cleavage kobs at 640 uM GlcN6P [1]: < 1e-05 s⁻¹
self-cleavage kobs at 2500 uM GlcN6P [2]: < 1e-05 s⁻¹

G29C U30G C70U
self-cleavage kobs at 640 uM GlcN6P [1]: 0.000861 ± 0.00017 s⁻¹

U30G C34A C68A
self-cleavage kobs at 640 uM GlcN6P [1]: < 1e-05 s⁻¹

A15U G35U A39C
self-cleavage kobs at 640 uM GlcN6P [1]: < 1e-05 s⁻¹
self-cleavage kobs at 2500 uM GlcN6P [2]: < 1e-05 s⁻¹

A14U G29U U56G
self-cleavage kobs at 640 uM GlcN6P [1]: 0.000178 ± 4.1e-05 s⁻¹
self-cleavage kobs at 2500 uM GlcN6P [2]: 0.000206 ± 7.4e-05 s⁻¹

G29A G38A U65G
self-cleavage kobs at 640 uM GlcN6P [1]: < 1e-05 s⁻¹
self-cleavage kobs at 2500 uM GlcN6P [2]: < 1e-05 s⁻¹

G32A A53C C58U C71A
self-cleavage kobs at 640 uM GlcN6P [1]: < 1e-05 s⁻¹

U31G G35C G51U
self-cleavage kobs at 640 uM GlcN6P [1]: < 1e-05 s⁻¹

C16A A36U A42G A48G G51U U54G
self-cleavage kobs at 640 uM GlcN6P [1]: < 1e-05 s⁻¹
self-cleavage kobs at 2500 uM GlcN6P [2]: < 1e-05 s⁻¹

U31G G35U A36G U47A A64G C68U C71G
self-cleavage kobs at 640 uM GlcN6P [1]: 9.41e-05 ± 3.3e-05 s⁻¹

U30C U45G U56G C68G
self-cleavage kobs at 640 uM GlcN6P [1]: < 1e-05 s⁻¹
self-cleavage kobs at 2500 uM GlcN6P [2]: < 1e-05 s⁻¹

U31A C58U U69G
self-cleavage kobs at 640 uM GlcN6P [1]: 0.000109 ± 4.2e-05 s⁻¹
self-cleavage kobs at 2500 uM GlcN6P [2]: 7.72e-05 ± 2.2e-05 s⁻¹

G29A U47G A53G C61U U65A
self-cleavage kobs at 640 uM GlcN6P [1]: < 1e-05 s⁻¹

C16G U30C C50U
self-cleavage kobs at 640 uM GlcN6P [1]: < 1e-05 s⁻¹

G29C A36C C61A
self-cleavage kobs at 640 uM GlcN6P [1]: < 1e-05 s⁻¹
self-cleavage kobs at 2500 uM GlcN6P [2]: < 1e-05 s⁻¹

C19A A48U
self-cleavage kobs at 640 uM GlcN6P [1]: 6.44e-05 ± 2.3e-05 s⁻¹
